Experimental data reported in patent US11352401.

Molecular target: T1, HLA-A*24 (human)
T1 construct: MHC monomer made peptide-receptive by UV cleavage of a UV-sensitive ligand; also called peptide-receptive MHC class I monomer
Assay: UV peptide-exchange ELISA; ++++ = yield >75%
Text: (§1) Candidate peptides for T cell based therapies according to the present invention were further tested for their MHC binding capacity (affinity). The individual peptide-MHC complexes were produced by UV-ligand exchange, where a UV-sensitive peptide is cleaved upon UV-irradiation, and exchanged with the peptide of interest as analyzed. Only peptide candidates that can effectively bind and stabilize the peptide-receptive MHC molecules prevent dissociation of the MHC complexes. To determine the yield of the exchange reaction, an ELISA was performed based on the detection of the light chain (β2m) of stabilized MHC complexes. The assay was performed as generally described in Rodenko et al. (Rodenko et al., 2006).
(§2) 96 well MAXISorp plates (NUNC) were coated over night with 2 ug/ml streptavidin in PBS at room temperature, washed 4× and blocked for 1 h at 37° C. in 2% BSA containing blocking buffer. […] Peptide-MHC monomers of the UV-exchange reaction were diluted 100-fold in blocking buffer. Samples were incubated for 1 h at 37° C., washed four times, incubated with 2 ug/ml HRP conjugated anti-β2m for 1h at 37° C., washed again and detected with TMB solution that is stopped with […]. Absorption was measured at 450 nm.

Peptide exchange yield, > 75%:
MYPDLSELLM [MYPDLSELLM (SEQ ID NO: 24)], SYNGYVFYL [SYNGYVFYL (SEQ ID NO: 25)], KTPTNYYLF [KTPTNYYLF (SEQ ID NO: 26)], NYTLYPITF [NYTLYPITF (SEQ ID NO: 27)], YYSIISHTL [YYSIISHTL (SEQ ID NO: 28)], VYPLLSRLYW [VYPLLSRLYW (SEQ ID NO: 29)], QYLPGWTVLF [QYLPGWTVLF (SEQ ID NO: 30)], QYQNVLTLW [QYQNVLTLW (SEQ ID NO: 31)], SLPDLTPTF [SLPDLTPTF (SEQ ID NO: 32)], MQPRMFFLF [MQPRMFFLF (SEQ ID NO: 34)], KYLEESVWL [KYLEESVWL (SEQ ID NO: 35)], QWPWQASLQF [QWPWQASLQF (SEQ ID NO: 37)], KYTNWKAFL [KYTNWKAFL (SEQ ID NO: 38)], TLPNTIYRF [TLPNTIYRF (SEQ ID NO: 42)], AYLSAVGTF [AYLSAVGTF (SEQ ID NO: 44)], KYFVPPQLF [KYFVPPQLF (SEQ ID NO: 45)], AFPVTSIFHTF [AFPVTSIFHTF (SEQ ID NO: 46)], KYADYFLEV [KYADYFLEV (SEQ ID NO: 47)], VFIDHPVHLKF [VFIDHPVHLKF (SEQ ID NO: 48)], LYISEVRNI [LYISEVRNI (SEQ ID NO: 49)], SYPELVKMVW [SYPELVKMVW (SEQ ID NO: 50)], KYMKIFHKF [KYMKIFHKF (SEQ ID NO: 52)], KYITNLEDL [KYITNLEDL (SEQ ID NO: 53)], RWMDQRLVF [RWMDQRLVF (SEQ ID NO: 55)], VYMIEPLEL [VYMIEPLEL (SEQ ID NO: 56)], YPSIIQEF [YPSIIQEF (SEQ ID NO: 57)], QFAAPLRGIYF [QFAAPLRGIYF (SEQ ID NO: 58)], LYQEILAQL [LYQEILAQL (SEQ ID NO: 62)], VMPSDSFFF [VMPSDSFFF (SEQ ID NO: 63)], NYAIFDEGHML [NYAIFDEGHML (SEQ ID NO: 64)], VYPASKMFPFI [VYPASKMFPFI (SEQ ID NO: 65)], IYFRDSSFL [IYFRDSSFL (SEQ ID NO: 66)], RYPGKFYRV [RYPGKFYRV (SEQ ID NO: 67)], IYQQIIQTY [IYQQIIQTY (SEQ ID NO: 68)], IMPEKFEFW [IMPEKFEFW (SEQ ID NO: 69)], PYTNYTFDF [PYTNYTFDF (SEQ ID NO: 70)], SYMVLAPVF [SYMVLAPVF (SEQ ID NO: 71)], RYEGILYTI [RYEGILYTI (SEQ ID NO: 72)], VYDQYFITL [VYDQYFITL (SEQ ID NO: 74)], NYIYSISVF [NYIYSISVF (SEQ ID NO: 75)], TWFPKTPMLF [TWFPKTPMLF (SEQ ID NO: 78)], RYLADLPTL [RYLADLPTL (SEQ ID NO: 79)], YYSPLRDLL [YYSPLRDLL (SEQ ID NO: 80)], LYPEGLRLL [LYPEGLRLL (SEQ ID NO: 81)], RFLPSPVVI [RFLPSPVVI (SEQ ID NO: 82)], TYCQNIKEF [TYCQNIKEF (SEQ ID NO: 83)], VYSDLHAFYY [VYSDLHAFYY (SEQ ID NO: 375)], KYVKDFHKF [KYVKDFHKF (SEQ ID NO: 376)], VYVGAVNRI [VYVGAVNRI (SEQ ID NO: 377)], KFLGPAEHLTF [KFLGPAEHLTF (SEQ ID NO: 378)], TYSKKHFRI [TYSKKHFRI (SEQ ID NO: 381)], KYVKVFDKF [KYVKVFDKF (SEQ ID NO: 384)], MYINEVERL [MYINEVERL (SEQ ID NO: 385)], VYNDHSIYVW [VYNDHSIYVW (SEQ ID NO: 386)]

Molecular target: T2, HLA-B*07 (human)
T2 construct: MHC monomer made peptide-receptive by UV cleavage of a UV-sensitive ligand; also called peptide-receptive MHC class I monomer
Assay: UV peptide-exchange ELISA; ++++ = yield >75%
Text: as §1, §2

Peptide exchange yield, > 75%:
SPSVSQLSVL [SPSVSQLSVL (SEQ ID NO: 220)], VPDVAQFVL [VPDVAQFVL (SEQ ID NO: 221)], YPKDIYSSF [YPKDIYSSF (SEQ ID NO: 223)], GPQPWHAAL [GPQPWHAAL (SEQ ID NO: 224)], LPFDGPGGIL [LPFDGPGGIL (SEQ ID NO: 225)], SPRMSGLLSQT [SPRMSGLLSQT (SEQ ID NO: 226)], YPRGNHWAVGH [YPRGNHWAVGH (SEQ ID NO: 227)], YPRGNHWAVGHL [YPRGNHWAVGHL (SEQ ID NO: 228)], RPRALRDLQL [RPRALRDLQL (SEQ ID NO: 231)], RPRALRDLQLL [RPRALRDLQLL (SEQ ID NO: 232)], KPYQGNPTF [KPYQGNPTF (SEQ ID NO: 233)], RAKNAGVTI [RAKNAGVTI (SEQ ID NO: 234)], MPLKHYLLL [MPLKHYLLL (SEQ ID NO: 235)], RVRGGEDGDRAL [RVRGGEDGDRAL (SEQ ID NO: 236)]
